From the domain aggregation screens of Martell et al. (2025) come the findings set out here.

The data set is described as follows: soluble fraction after stress (log2 fold change); higher = more stays soluble; pooled small domains, quantitative proteomics. The note with it: stress: 50 degC. An outline of the steps: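 Each library was heated to 50°C as a stress step. The libraries, made up of small protein domains, were pooled and analysed at high throughput by quantitative proteomics. The reported value is the base-two logarithm of the fold change in each protein's soluble amount after stress, taken as a measure of aggregation propensity. The higher the value, the more protein stays in solution.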
As for “HMYNPAYDAEIKVILELARHGYWEEARERADELLKAAPDDTGVKRIQTWVRQQEQRMREQAIEDSIRA”, the “soluble fraction (log2)” value is -0.0287.
For the sequence “HMYPEETVNKILDVSMQLFLEKGYEHTSIQDIVNHLGGLSKGAIYHHFKSKEDILDGVMNKLYQNN”, the “soluble fraction (log2)” value is -0.816.
In the case of “HMYPGQILEIYLDEIKRLYLNGLSSADIFAEIKEGSIPSVKKAIRSMKDGSAPVKITEAEESTRIAPS” it was -0.441.
For “HMYPTPAAANRHFLDKWGHQEAYLGKVLNSRSRASEILNGKRPLSLSDLRTLRDNLGIPVDLLL”, the “soluble fraction (log2)” value was -0.489.
In the case of “HMYQKERDKEISEIETFLKKITNANGTRAYSDESIADMSYVELLNLYEGITSKLTEEEIENI” it was 0.131.
As for “HMYQPLYEQIKRMLTQSLIDGEWKAGEMIPSEMELAARFKVSQGTVRKAIDELVSENILMRRQGKGTFVH”, the “soluble fraction (log2)” value is -0.231.
Under “HMYSDDNKSILNLIDNLFNKENIKIDINAKKLLSNYLGVDRLVTKGEIEKAILFAGTKKHLSIEDISAFLS” stands -0.0337; under “HMYSFPHQLLKLRTEKQLSQAELATRLFVSRQAVSKWENGDAEPSIDKLILLAKVFNVSLDRLILGT”, -1.43; under “HMYSIDNPPDWLKNLPKGAIRIGVEVFNQVLSKADDEDRARMAAWSAIKAKYEKADDGQWQPKAA”, -0.0798.
Under “HMYSNDEIVNYLKNYIFDNFNLNELSDEELEEKIAELVQQQFAGQLLSLDEKVKLVNQVYSSIR” stands 0.0129; under “HMYSRQRDLILKALRENVVHPTADFIYTVLKEKEPNLSLATVYRNLNLLANEGIIRKIEGLDGVAHFDH”, -1.46; under “HMYSVVGKKGIVIEDINYSTGTGQIKSEGEVWSAKTNEQINIPKGTEIEIESIDGVKVIVKPL”, 0.0184.
Under “HMYTDGVPALTDLKKESKPGRRQYVGVEDIPKVLGGLGITILSTSKGLMSGHQAKKKNIGGELIASV” stands 0.258.
Regarding “HMYTEIDDVKDLLSKIPSVNKLTTADRGMVQAARNAYDALDEDQKLYITIADVEKFNAAVEWMEEH”, the “soluble fraction (log2)” value was 0.0056.
“HMYTVRDGDTVFGILNRFGVSLDELLSLNPELSNGLKAGMVLKIK”: the “soluble fraction (log2)” value was -0.491.
Under “HMYVADVVGMGIKDALYILENQGLRVVFTGKGVVKNQSIAVGEKIIKGEKIVLML” stands -1.7; under “HMYVQDPVDRLVLESALRLLREQEREIIFLHLVAGLKHREIAGLLHLPLSTVLSGYRRALTKMKSYLEE”, -0.115; under “HMYVTGETIRHLRTQRRMTQEQLAETLGVTGKAVSKWETGRGFPDMSLLEPLARALRISVPELLSGE”, -0.614.
In the case of “HMYYNQGILKSGASVYGEPGITSSHRLEIPSGSFVDIVQEKDEWVYYEKNHVNHGWVLRENIYIPSL” it was 0.0681; in that of “HMYYQEDHDIILEETEDVTDPYLITLRGYIFLNNLQWVAARQAFLSADERFRHRHYSALIAPIMQTIDNAA”, -0.013.
As to “HMYYSERILTILEERGISPYRVSKETGISQSVFSNWKRKPTSRITAANLERLADYLGLPVEVLTG”, the “soluble fraction (log2)” value is -3.45.
